Laboratory results taken from US10849992B1, “Methods of screening for sortilin binding antagonists” (ALECTOR LLC, priority 2015, dated 2020).
No end group written: not given here. *: point of attachment. Biotin = O=C1N[C@H]2[C@H](CS[C@H]2CCCCC(=O)*)N1

How the values were obtained:
[1] = molecular target: T1, sortilin protein with a C-terminal 6×His-tag (Homo sapiens (Human), UniProt Q99523 78-755, directly conjugated with d2 in assay format #3 (site not stated); unlabeled and detected with d2-labeled 1C12 in assay format #10); experiment: HTRF, assay format #10: sortilin at 9 nM, anti-sortilin 1C12 at 20 ng/well, SA-Tb at 0.33 nM; assay format #10: sortilin detected with anti-sortilin 1C12 antibody, SA-Tb
T1 construct: Soluble sortilin of the HTRF assays; also called sortilin-d2; Tb-conjugated sortilin protein
T1 sequence: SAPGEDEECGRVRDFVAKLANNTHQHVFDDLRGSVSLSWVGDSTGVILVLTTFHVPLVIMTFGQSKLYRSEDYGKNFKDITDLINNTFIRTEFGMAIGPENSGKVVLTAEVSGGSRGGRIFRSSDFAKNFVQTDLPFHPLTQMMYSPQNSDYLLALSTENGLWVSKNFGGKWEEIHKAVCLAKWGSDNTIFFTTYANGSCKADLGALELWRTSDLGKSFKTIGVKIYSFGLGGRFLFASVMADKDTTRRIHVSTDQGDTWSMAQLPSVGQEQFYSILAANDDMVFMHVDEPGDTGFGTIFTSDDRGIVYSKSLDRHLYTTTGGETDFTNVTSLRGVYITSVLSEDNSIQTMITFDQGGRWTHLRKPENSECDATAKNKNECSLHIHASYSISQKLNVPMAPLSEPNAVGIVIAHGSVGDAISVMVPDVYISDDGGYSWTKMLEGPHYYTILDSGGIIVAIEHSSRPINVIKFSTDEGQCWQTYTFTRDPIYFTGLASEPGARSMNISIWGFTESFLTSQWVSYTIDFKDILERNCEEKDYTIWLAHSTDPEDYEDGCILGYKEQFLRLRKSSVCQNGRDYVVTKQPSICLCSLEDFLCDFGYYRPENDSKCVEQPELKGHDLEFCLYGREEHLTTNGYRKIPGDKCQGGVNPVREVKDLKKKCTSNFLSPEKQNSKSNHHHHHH
Description: (§1) Assay #3 uses directly d2 conjugated sortilin and SA-Tb to detect the peptide. […] Assay #10 uses anti-sortilin 1C12 antibody to detect sortilin and SA-Tb to detect the peptide.

[2] = molecular target: T1, sortilin protein with a C-terminal …; experiment: HTRF, assay format #3: sortilin-d2 at 9 nM, SA-Tb at 0.33 nM; assay format #3: directly d2 conjugated sortilin, SA-Tb
Description: as §1

[3] = molecular target: T1, sortilin protein with a C-terminal …; experiment: row HotKdNM of the drawn table: Kd of the labelled (biotinylated) peptide for sortilin, held constant in the Ki fit of assay format 10; same value in all three columns
[4] = molecular target: T2, human sortilin expressed on cells (human, UniProt Q99523 78-831); experiment: flow cytometry on transiently transfected HEK293T cells, on ice, Streptavidin-APC, median fluorescence intensity
T2 construct: Transiently transfected HEK293T cells; also called Sortilin1; full-length Sortilin
T2 sequence: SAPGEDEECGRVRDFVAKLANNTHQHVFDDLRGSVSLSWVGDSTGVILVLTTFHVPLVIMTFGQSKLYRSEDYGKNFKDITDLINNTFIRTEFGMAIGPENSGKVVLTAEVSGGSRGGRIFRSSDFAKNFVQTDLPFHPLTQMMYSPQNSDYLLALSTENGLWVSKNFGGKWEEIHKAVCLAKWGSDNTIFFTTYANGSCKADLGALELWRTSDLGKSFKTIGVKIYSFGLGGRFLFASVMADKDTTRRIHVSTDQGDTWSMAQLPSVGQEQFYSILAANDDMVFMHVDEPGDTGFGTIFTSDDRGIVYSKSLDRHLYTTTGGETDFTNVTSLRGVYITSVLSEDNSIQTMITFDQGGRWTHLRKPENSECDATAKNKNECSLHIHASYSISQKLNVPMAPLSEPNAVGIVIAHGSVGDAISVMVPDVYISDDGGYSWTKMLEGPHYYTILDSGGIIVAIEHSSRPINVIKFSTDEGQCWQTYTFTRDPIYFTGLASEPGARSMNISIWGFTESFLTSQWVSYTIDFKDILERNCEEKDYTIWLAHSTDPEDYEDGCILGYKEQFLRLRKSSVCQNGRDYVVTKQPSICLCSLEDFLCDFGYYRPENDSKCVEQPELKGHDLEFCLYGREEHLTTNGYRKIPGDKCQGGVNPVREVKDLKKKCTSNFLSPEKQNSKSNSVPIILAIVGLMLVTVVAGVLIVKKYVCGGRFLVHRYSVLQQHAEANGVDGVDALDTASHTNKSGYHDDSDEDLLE
Procedure: (§2) Cells were then washed and incubated with Streptavidin-APC and analyzed using Fluorescence Activated Cell Sorting (FACS). […] Cells were transiently transfected with human Sortilin or lacZ (control) and GFP using Fugene and harvested after 24 h. GFP was either expressed by a second vector (Topo3.3, Invitrogen) or located on the same vector, separated by an IRES sequence (pCMV6-AC-IRES-GFP, Origene). Full-length Sortilin was used either untagged (Topo3.3) or with a C-terminal myc tag (pCMV6-AC-IRES-GFP). […] After washing cells 3 times in HBSS+1% BSA, cells were incubated in Streptavidin-APC (BD Biosciences, 1:20) on ice for 30 min. Then cells were washed again, resuspended in HBSS+1% BSA and analyzed on a FACSCanto™ flow cytometer (BD Biosciences, Mississauga, ON).

Sortilin = molecular target: T3, Sortilin (Homo sapiens, UniProt Q99523); experiment: Cell-based FACS assay: biotinylated PGRN binding to HEK293T cells expressing Sortilin; parameters: Full-length Sortilin was used either untagged (Topo3.3) or with a C-terminal myc tag (pCMV6-AC-IRES-GFP); myc (only in the pCMV6-AC-IRES-GFP construct); expressed in transfected cells; host or cells: HEK293T; conditions: on ice 2 h, Streptavidin-APC
T3 sequence (Q99523 78-831): T2 sequence
Procedure: HEK293T cells were transiently transfected with constructs for expressing Sortilin or LacZ (control) and incubated with biotinylated PGRN protein on ice for 2 h. Both human and mouse PGRN proteins were tested. Cells were then washed and incubated with Streptavidin-APC and analyzed using Fluorescence Activated Cell Sorting (FACS). For blocking assay, sortilin pro-domain peptide was used. Recombinant human PGRN (Adipogen) was biotinylated using a kit (EZ-link-Micro-NHS-PEG4 biotinylation kit, Thermo Scientific Pierce, #21955). Cells were transiently transfected with human Sortilin or lacZ (control) and GFP using Fugene and harvested after 24 h. GFP was either expressed by a second vector (Topo3.3, Invitrogen) or located on the same vector, separated by an IRES sequence (pCMV6-AC-IRES-GFP, Origene). Full-length Sortilin was used either untagged (Topo3.3) or with a C-terminal myc tag (pCMV6-AC-IRES-GFP). Human Progranulin was added in HBSS+1% BSA or PBS+1% BSA with or without Sortilin pro-peptide as a blocker, and incubated on ice for 2 h. […] Then cells were washed again, resuspended in HBSS+1% BSA and analyzed on a FACSCanto™ flow cytometer (BD Biosciences, Mississauga, ON). PGRN binding was measured as the median fluorescence intensity of APC on the GFP positive population.

[5] = molecular target: T2, human sortilin expressed on cells; experiment: FACS, blocking of PGRN-DyLight650 binding and endocytosis on sortilin-expressing cells
[6] = molecular target: T2, human sortilin expressed on cells; experiment: FACS, blocking of biotinylated PGRN binding to sortilin-expressing HEK293T cells
Procedure: as §2

B1: biotinylated PGRN peptide (peptide)
peptide: Biotin-TKCLRREAPRWDAPLRDPALRQLL
notes: Detected through streptavidin-Tb in formats #3, #6 and #10; also called 24 amino acid-sized C-terminal peptide of PGRN; biotinylated peptide
Kd [1]: 1.6 nM
Kd [2]: 2 nM
Kd [3]: 1.4 nM

B2: biotinylated mouse PGRN (ligand, UniProt P28798 18-589, looked up)
chain: TQCPDGQFCPVACCLDQGGANYSCCNPLLDTWPRITSHHLDGSCQTHGHCPAGYSCLLTVSGTSSCCPFSKGVSCGDGYHCCPQGFHCSADGKSCFQMSDNPLGAVQCPGSQFECPDSATCCIMVDGSWGCCPMPQASCCEDRVHCCPHGASCDLVHTRCVSPTGTHTLLKKFPAQKTNRAVSLPFSVVCPDAKTQCPDDSTCCELPTGKYGCCPMPNAICCSDHLHCCPQDTVCDLIQSKCLSKNYTTDLLTKLPGYPVKEVKCDMEVSCPEGYTCCRLNTGAWGCCPFAKAVCCEDHIHCCPAGFQCHTEKGTCEMGILQVPWMKKVIAPLRLPDPQILKSDTPCDDFTRCPTNNTCCKLNSGDWGCCPIPEAVCCSDNQHCCPQGFTCLAQGYCQKGDTMVAGLEKIPARQTTPLQIGDIGCDQHTSCPVGQTCCPSLKGSWACCQLPHAVCCEDRQHCCPAGYTCNVKARTCEKDVDFIQPPVLLTLGPKVGNVECGEGHFCHDNQTCCKDSAGVWACCPYLKGVCCRDGRHCCPGGFHCSARGTKCLRKKIPRWDMFLRDPVPRPLL
modifications: biotinylated (sites not given)
binding result [4]: binds

B3: mouse PGRN: mouse PGRN protein, biotinylated, tested in the FACS binding assay (protein)
chain: B2 chain
binding of PGRN to sortilin-expressing, but not control (LacZ), HEK293T cells (Sortilin): strong and specific binding

B4: sortilin pro-domain peptide (peptide, UniProt Q99523 34-77, looked up)
peptide: QDRLDAPPPPAAPLPRWSGPIGVSWGLRAAAAGGAFPRGGRWRR
notes: domain: pro-domain; also called Sortilin1 pro-domain peptide; sortilin pro-peptide
IC50 [5]: 450 nM
IC50 [6]: ~5900 nM

B5: non-biotinylated PGRN peptide (peptide)
peptide: TKCLRREAPRWDAPLRDPALRQLL
notes: also called unlabeled PGRN peptide; C-terminal peptide of PGRN
IC50 [5]: 35 nM
